Results from US20160264649A1.

Key:
Test in all cases: cell-based or functional assay
[1] = target: HIV-1 93MW959 Env on pseudovirus (HIV-1)
[2] = target: HIV-1 CMU02 Env (HIV-1)
[3] = target: HIV-1 93IN905 Env on pseudovirus (HIV-1)
[4] = target: HIV-1 MGRM-C-007 Env on pseudovirus (HIV-1)
[5] = target: HIV-1 MGRM-AE-001 Env (HIV-1)
[6] = target: HIV-1 MGRM-Chronic-B-023 Env on pseudovirus (HIV-1)
[7] = target: HIV-1 MGRM-Chronic-B-012 Env on pseudovirus (HIV-1)
[8] = target: HIV-1 MGRM-C-010 Env on pseudovirus (HIV-1)
[9] = target: HIV-1 MGRM-D-013 Env (HIV-1)
[10] = target: HIV-1 94UG103 Env (HIV-1)
[11] = target: HIV-1 MGRM-Chronic-B-008 Env on pseudovirus (HIV-1)
[12] = target: HIV-1 92UG024 Env (HIV-1)
[13] = target: HIV-1 PVO.4 (Acute) Env on pseudovirus (HIV-1)
[14] = target: HIV-1 MGRM-AE-008 Env (HIV-1)
[15] = target: HIV-1 MGRM-Chronic-B-002 Env on pseudovirus (HIV-1)
[16] = target: HIV-1 MGRM-F1-022 Env (HIV-1)
[17] = target: HIV-1 MGRM-AE-004 Env (HIV-1)
[18] = target: HIV-1 SC422661.8 (Acute) Env on pseudovirus (HIV-1)
[19] = target: HIV-1 MGRM-C-025 Env on pseudovirus (HIV-1)
[20] = target: HIV-1 MGRM-Chronic-B-017 Env on pseudovirus (HIV-1)
[21] = target: HIV-1 MGRM-D-026 Env (HIV-1)
[22] = target: HIV-1 MGRM-Chronic-B-018 Env on pseudovirus (HIV-1)
[23] = target: HIV-1 MGRM-G-009 Env (HIV-1)
[24] = target: HIV-1 MGRM-G-017 Env (HIV-1)
[25] = target: HIV-1 IAVI-C18 Env (HIV-1)
[26] = target: HIV-1 MGRM-C-004 Env on pseudovirus (HIV-1)
[27] = target: HIV-1 APV-17 Env (HIV-1)
[28] = target: HIV-1 MGRM-Chronic-B-024 Env on pseudovirus (HIV-1)
[29] = target: HIV-1 LAVI_C3 Env on pseudovirus (HIV-1)
[30] = target: HIV-1 93RW029 Env (HIV-1)
[31] = target: HIV-1 92RW020 Env (HIV-1)
[32] = target: HIV-1 VLGCA1 Env (HIV-1)

## 1496_C09 (PG9) (TCN-109) (antibody)
[1]
  IC50: 0.04 µg/mL
[2]
  IC50 (µg/ml), pseudovirus neutralization: 7.69 µg/mL
[3]
  IC50: 0.03 µg/mL
[4]
  IC50: 0.09 µg/mL
[5]
  IC50 (µg/ml), pseudovirus neutralization: 2.97 µg/mL
[6]
  IC50: 0.04 µg/mL
[7]
  IC50: 0.91 µg/mL
[8]
  IC50: 12.4 µg/mL
[9]
  IC50 (µg/ml), pseudovirus neutralization: 0.06 µg/mL
[10]
  neutralization IC50: 0.173 µg/mL
  neutralization IC90: 3.37 µg/mL
[11]
  IC50: 6.66 µg/mL
[12]
  IC50 (µg/ml), pseudovirus neutralization: 1.91 µg/mL
[13]
  IC50: 4.01 µg/mL
[14]
  IC50 (µg/ml), pseudovirus neutralization: 10.6 µg/mL
[15]
  IC50: 1.41 µg/mL
[16]
  IC50 (pseudovirus neutralization): 0.06 µg/mL
[17]
  IC50 (µg/ml), pseudovirus neutralization: 0.01 µg/mL
[18]
  IC50: 0.79 µg/mL
[19]
  IC50: 0.17 µg/mL
[20]
  IC50: 0.32 µg/mL
[21]
  IC50 (µg/ml), pseudovirus neutralization: 17.5 µg/mL
[22]
  IC50: 0.16 µg/mL
[23]
  IC50 (µg/ml), pseudovirus neutralization: 4.9 µg/mL
[24]
  IC50 (µg/ml), pseudovirus neutralization: 0.03 µg/mL
[25]
  neutralization IC50: 0.0535 µg/mL
  neutralization IC90: 0.866 µg/mL
[26]
  IC50: 1.18 µg/mL
[27]
  neutralization IC50: 26.4 µg/mL
[28]
  IC50: 0.18 µg/mL
[29]
  IC50: 1.45 µg/mL
[30]
  neutralization IC50: 1.19 µg/mL
[31]
  neutralization IC50: 0.08 µg/mL
[32]
  neutralization IC50: 0.07 µg/mL
